We go through four substances from US6410248.

The test system of series [1] is p53 site-selected zinc finger protein (Zif268 variant, boxed clone FIG. 3B) (artificial). In words: competition. Particulars: nonspecific over specific dissociation constant ratio; calf thymus competitor in EMSA.
Series [2] relates to NRE-selected zinc finger protein (Zif268 variant, boxed clone FIG. 3C) (artificial). In words: competition. Particulars: nonspecific over specific dissociation constant ratio; calf thymus competitor in EMSA. (In EMSA bound probe runs differently from free probe, usually more slowly.)
The test system of series [3] is TATA box-selected zinc finger protein (Zif268 variant, boxed clone FIG. 3A) (artificial). Description: competition. Particulars: nonspecific over specific dissociation constant ratio; calf thymus competitor in EMSA.
The target in series [4] is Zif268 zinc fingers 1-3 (wild type) (UniProt P08046). Description: competition. Conditions: nonspecific over specific dissociation constant ratio; calf thymus competitor in EMSA.
For series [5], the system named is TATA box-selected zinc finger protein (Zif268 variant, boxed clone FIG. 3A) (artificial). Description: EMSA. Particulars: same buffer, 5 mM MgCl2, 20 uM ZnSO4, pH 7.9.
In series [6] the test system is p53 site-selected zinc finger protein (Zif268 variant, boxed clone FIG. 3B) (artificial). In words: EMSA. Conditions: same buffer, 5 mM MgCl2, 20 uM ZnSO4, pH 7.9.
Series [7] relates to NRE-selected zinc finger protein (Zif268 variant, boxed clone FIG. 3C) (artificial). In words: EMSA. Particulars: same buffer, 5 mM MgCl2, 20 uM ZnSO4, pH 7.9.

For the substance calf thymus DNA, the values for the DNA-binding specificity ratio (nonspecific Kd / specific Kd) (fold (Kdns/Kd)) in series [1], in series [2] and in series [3] were 54000, 36000 and 25000, respectively. The binding signal (fold (Kdns/Kd)) in series [4] was determined as 31000.
“AGGGGGGCTATAAAAGGGGGT (double strand) [TATA box site]”: in series [5], the Kd (commonly the concentration at which binding is half-saturated) came to 0.12 nM.
Substance “GCTGTTGGGACATGTTCGTGA (double strand) [p53 binding site]” returned a Kd in series [6] of 0.11 nM.
With “GCCGTCAAGGGTTCAGTGGGG (double strand) [NRE site]”, the Kd in series [7] was determined as 0.038 nM.
